Data taken from US20260151420A1.

Molecular target: mouse LAG3 on Pmel-1 or Pmel-1xLy108 KO splenocytes (mouse) (UniProt Q61790)
Assay: cell-based or functional assay

Sequence of UniProt Q61790 (Q61790 24-521): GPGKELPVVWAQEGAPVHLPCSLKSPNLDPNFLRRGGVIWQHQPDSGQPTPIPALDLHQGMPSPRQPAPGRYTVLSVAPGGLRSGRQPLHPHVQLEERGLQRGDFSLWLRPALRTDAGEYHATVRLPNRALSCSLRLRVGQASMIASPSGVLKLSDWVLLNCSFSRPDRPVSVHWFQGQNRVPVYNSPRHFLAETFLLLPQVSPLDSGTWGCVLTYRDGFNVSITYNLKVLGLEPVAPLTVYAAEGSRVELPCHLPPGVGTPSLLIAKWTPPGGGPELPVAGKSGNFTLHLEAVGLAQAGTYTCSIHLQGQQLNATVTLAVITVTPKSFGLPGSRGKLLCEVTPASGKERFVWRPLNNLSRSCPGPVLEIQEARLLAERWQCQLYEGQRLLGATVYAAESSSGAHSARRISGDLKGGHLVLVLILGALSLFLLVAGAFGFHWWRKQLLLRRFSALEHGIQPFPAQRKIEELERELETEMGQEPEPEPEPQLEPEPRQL

anti-LAG3 blocking antibody (BioXCell, clone: C9B7W, cat: BE0174)
IFN-γ production (ELISA), Pmel-1×Ly108 KO cells with anti-LAG3 compared to Ly108-expressing cells: 3 fold | IFN-γ secretion (ELISA) of Pmel-1 splenocytes activated with anti Lag3 (10 µg/ml), compared to no treatment: 1.5 fold
